Assay results from patent US20160257760A1 (OXFORD BIOTHERAPEUTICS, published 2016).

What was measured:
Assay in all cases: peptide microarray, 1 µg/mL LY75_A1, anti-human IgG Alexa 647
[1] = target: T1, ELTYSNFH
T1 peptide: ELTYSNFH
Method: (§1) The chip comprised three panels such that the experiment was performed in triplicate. […] The binding assay was performed under the following conditions:—The microarray comprising the contiguous peptides in triplicate was washed with 1 mL of binding buffer at 4° C. for 20 min. […] The array was again washed with 0.5 mL of washing buffer at 4° C. for 30 min.

[2] = target: T2, YSNFHPLL
T2 peptide: YSNFHPLL
Method: as §1

[3] = target: T3, TYSNFHPL
T3 peptide: TYSNFHPL
Method: as §1

Measured: binding result

B1: LY75_A1 monoclonal antibody (antibody, V domains shown)
VH: EVQLVESGGGLVKPGGSLRLSCAASGFTYSNAWMSWVRQAPGKGLEWVGRIKSKTDGGTTDYAAPVQGRFTISRDDSKNTLYLQMNSLKTEDTAVYYCTIFGVVSFDYWGQGTLVTVSS
VL: DVQMTQSPSSLSASVGDRVTITCRASQSISDYLSWYQQRPGKAPNLLIYAASNLKTGVPSRFSGSGSGTDFTLTISTLQPEDFATYYCQQSYRSPWTFGQGTKVEIKR
notes: also called LY75A1 antibody; LY75_A1 antibody
binds: [1] | [2] | [3]
